Laboratory results: patent publication US20230331809A1 (Zymeworks, published 2023)
Read-outs that look alike come from different tables or passages of the source.

Tests used:
[1] = molecular target: T1, CD40 (Cluster of Differentiation 40) on cells (UniProt P25942 21-277, limits assumed); assay: flow cytometry on Raji cells, sample without uPa
T1 construct: whole, on cells

[2] = molecular target: T1, CD40 (Cluster of Differentiation 40) on …; assay: cell-based or functional assay
[3] = molecular target: T1, CD40 (Cluster of Differentiation 40) on …; assay: cell-based or functional assay; remark: listed apart in the source
[4] = molecular target: T1, CD40 (Cluster of Differentiation 40) on …; assay: flow cytometry on Raji cells (CD40), MFI
[5] = molecular target: T1, CD40 (Cluster of Differentiation 40) on …; assay: flow cytometry on Raji cells (CD40), MFI; sample treated with uPa (variant has no cleavage site)
[6] = molecular target: T1, CD40 (Cluster of Differentiation 40) on …; assay: flow cytometry on Raji cells (CD40), MFI; sample treated with uPa; EC50 relative to v32477 -uPa
[7] = molecular target: T1, CD40 (Cluster of Differentiation 40) on …; assay: flow cytometry on Raji cells, samples with and without uPa
[8] = molecular target: T2, CD3 (Cluster of Differentiation 3) on Jurkat cells and on pan T cells (human, UniProt P07766 23-207); assay: cell ELISA on Jurkat cells (CD3), OD450; EC50 relative to v30421
T2 construct: whole, on cells

[9] = molecular target: T2, CD3 (Cluster of Differentiation 3) on …; assay: flow cytometry on pan T cells (CD3), MFI
[10] = molecular target: T2, CD3 (Cluster of Differentiation 3) on …; assay: cell ELISA on Jurkat cells (CD3), OD450
[11] = molecular target: T2, CD3 (Cluster of Differentiation 3) on …; assay: flow cytometry on human pan T cells, uPa-treated sample
[12] = molecular target: T3, PD-L1 (Programmed death-ligand 1) on cells (UniProt Q9NZQ7 19-290); assay: flow cytometry on PD-L1 transfected CHO-S cells, MFI; # Bmax constrained to value of v31929
T3 construct: whole, on cells

[13] = molecular target: T2, CD3 (Cluster of Differentiation 3) on …; assay: cell ELISA on Jurkat cells (CD3), OD450; remark: listed apart in the source
[14] = molecular target: T2, CD3 (Cluster of Differentiation 3) on …; assay: cell ELISA on Jurkat cells (CD3), OD450; EC50 relative to v30421; remark: listed apart in the source
[15] = molecular target: T3, PD-L1 (Programmed death-ligand 1) on …; assay: flow cytometry on PD-L1 transfected CHO-S cells, uPa-treated sample
[16] = molecular target: T3, PD-L1 (Programmed death-ligand 1) on …; assay: flow cytometry on PD-L1 transfected CHO-S cells, sample without uPa
[17] = molecular target: T4, PD-1 (Programmed Cell Death Protein 1) on cells (UniProt Q15116 25-288); assay: flow cytometry on PD-1 transfected CHO-S cells, MFI; * poor fit
T4 construct: whole, on cells

[18] = molecular target: T4, PD-1 (Programmed Cell Death Protein 1) …; assay: flow cytometry on PD-1 transfected CHO-S cells, MFI
[19] = molecular target: T4, PD-1 (Programmed Cell Death Protein 1) …; assay: flow cytometry on PD-1 transfected CHO-S cells, MFI; reference sample
[20] = molecular target: T4, PD-1 (Programmed Cell Death Protein 1) …; assay: flow cytometry on PD-1 transfected CHO-S cells (direct binding; the filing prints IC50)
[21] = molecular target: T4, PD-1 (Programmed Cell Death Protein 1) …; assay: flow cytometry on PD-1 transfected CHO-S cells, uPa-treated sample
[22] = molecular target: T4, PD-1 (Programmed Cell Death Protein 1) …; assay: flow cytometry on PD-1 transfected CHO-S cells, MFI; # Bmax constrained (footnote prints: to value of v31929)
[23] = molecular target: T2, CD3 (Cluster of Differentiation 3) on …; assay: cell ELISA on CD3-bearing Jurkat cells, sample without uPa

B1: Variant 32479: HA PD-1:WT PD-L1 masked aCD40 Mab, PD-L1 cleavable (not treated with uPa) (antibody, human IgG1, kappa)
heavy: not shown
light: AFTVTVPKDLYVVEYGSNMTIECKFPVEKQLDLAALIVYWEMEDKNIIQFVHGEEDLKVQHSSYRQRARLLKDQLSLGNAALQITDVKLQDAGVYRCMISYGGADYKRITVKVNAEAAAKEAAAKMSGRSANADIQMTQSPSSVSASVGDRVTITCRASQGIYSWLAWYQQKPGKAPNLLIYTASTLQSGVPSRFSGSGSGTDFTLTISSLQPEDFATYYCQQANIFPLTFGGGTKVEIKRTVAAPSVFIFPPSDEQLKSGTASVVCLLNNFYPREAKVQWKVDNALQSGNSQESVTEQDSKDSTYSLSSTLTLSKADYEKHKVYACEVTHQGLSSPVTKSFNRGEC
notes: also called v32479; untreated v32479
fold reduction of binding vs unmasked v32477 [1]: 14 fold
CD40 reporter gene assay, fold masking of activity [2]: 55 fold
EC50, CD40 RGA, FcgRIIB CHOK1 (sample v32479 - uPa) [3]: 2.64 µg/mL
EC50, CD40 RGA, WT CHOK1 (sample v32479 - uPa) [3]: 44.7 µg/mL
Fold wrt WT (EC50), CD40 RGA, FcgRIIB CHOK1 (sample v32479 - uPa) [3]: 54.3 fold
Fold wrt WT (EC50), CD40 RGA, WT CHOK1 (sample v32479 - uPa) [3]: 326 fold
EC50 [4]: 14 nM

B2: Variant 32477: Unmasked aCD40 mAb (antibody, human IgG1, kappa)
heavy: not shown
light: DIQMTQSPSSVSASVGDRVTITCRASQGIYSWLAWYQQKPGKAPNLLIYTASTLQSGVPSRFSGSGSGTDFTLTISSLQPEDFATYYCQQANIFPLTFGGGTKVEIKRTVAAPSVFIFPPSDEQLKSGTASVVCLLNNFYPREAKVQWKVDNALQSGNSQESVTEQDSKDSTYSLSSTLTLSKADYEKHKVYACEVTHQGLSSPVTKSFNRGEC
notes: also called v32477
EC50 [5]: 0.94 nM
Fold wrt WT [6]: 0.96 fold
EC50, CD40 RGA, FcgRIIB CHOK1 (sample v32477 + uPa) [3]: 0.03 µg/mL
EC50, CD40 RGA, FcgRIIB CHOK1 (sample v32477 - uPa) [3]: 0.05 µg/mL
EC50, CD40 RGA, HEK Blue only (sample v32477 + uPa) [3]: 0.13 µg/mL
EC50, CD40 RGA, HEK Blue only (sample v32477 - uPa) [3]: 0.15 µg/mL
EC50, CD40 RGA, WT CHOK1 (sample v32477 + uPa) [3]: 0.1 µg/mL
EC50, CD40 RGA, WT CHOK1 (sample v32477 - uPa) [3]: 0.14 µg/mL
Fold wrt WT (EC50), CD40 RGA, FcgRIIB CHOK1 (sample v32477 + uPa) [3]: 0.71 fold
Fold wrt WT (EC50), CD40 RGA, HEK Blue only (sample v32477 + uPa) [3]: 0.86 fold
Fold wrt WT (EC50), CD40 RGA, WT CHOK1 (sample v32477 + uPa) [3]: 0.75 fold
EC50 [4]: 0.98 nM
EC50 [7]: 1 nM

B3: Variant 30430 treated with uPa (+uPa): PD-L1 moiety cleaved from the light chain, HA PD-1 left on the heavy chain (bispecific antibody)
chain 1: not shown
chain 2: SANADIQMTQSPSSLSASVGDRVTMTCSASSSVSYMNWYQQKPGKAPKRWIYDSSKLASGVPARFSGSGSGTDYTLTISSLQPEDFATYYCQQWSRNPPTFGGGTKLQITRTVAAPSVFIFPPSDEQLKSGTASVVCLLNNFYPREAKVQWKVDNALQSGNSQESVTEQDSKDSTYSLSSTLTLSKADYEKHKVYACEVTHQGLSSPVTKSFNRGEC
chain 3: not shown
Fold wrt WT [8]: 5.5 fold
EC50 [9]: 67 nM
EC50 [10]: 6.7 nM
fold of the unmasked control after uPa treatment [11]: 29 fold
EC50 [12]: 18 nM
EC50 [13]: 6.7 nM
Fold wrt WT [14]: 5.5 fold
fold of the one-sided mask control 31929 [15]: 53 fold

B4: Variant 30436: WT PD-1:HA PD-L1 masked CD3 × Her2 Fab × scFv Fc, PD-1 cleavable (not treated with uPa) (bispecific antibody, human IgG1, kappa, L234A L235A)
heavy: not shown
light: AFTVTVPKDLYVVEYGSNMTIECKFPVEKQLDLAALQVFWMMEDKNIIQFVHGEEDLKVQHSSYRQRARLLKDQLSLGNAALQITDVKLQDAGVYTCLIAYKGADYKRITVKVNAEAAAKEAAAKDIQMTQSPSSLSASVGDRVTMTCSASSSVSYMNWYQQKPGKAPKRWIYDSSKLASGVPARFSGSGSGTDYTLTISSLQPEDFATYYCQQWSRNPPTFGGGTKLQITRTVAAPSVFIFPPSDEQLKSGTASVVCLLNNFYPREAKVQWKVDNALQSGNSQESVTEQDSKDSTYSLSSTLTLSKADYEKHKVYACEVTHQGLSSPVTKSFNRGEC
chain: not shown
notes: also called masked, heavy-chain-cleavable variant
binding result [16]: no binding (tested: titrated from 200 nM at a 1:3 dilution)
Fold wrt v31931 [17]: > 35 fold
EC50 [13]: 180 nM
Fold wrt WT [14]: 150 fold

B5: Variant 31931: Half-masked CD3 × Her2 Fab × scFv Fc, HA PD-L1 attached to LC (bispecific antibody, human IgG1, kappa, L234A L235A)
heavy: not shown
light: AFTVTVPKDLYVVEYGSNMTIECKFPVEKQLDLAALQVFWMMEDKNIIQFVHGEEDLKVQHSSYRQRARLLKDQLSLGNAALQITDVKLQDAGVYTCLIAYKGADYKRITVKVNAEAAAKEAAAKDIQMTQSPSSLSASVGDRVTMTCSASSSVSYMNWYQQKPGKAPKRWIYDSSKLASGVPARFSGSGSGTDYTLTISSLQPEDFATYYCQQWSRNPPTFGGGTKLQITRTVAAPSVFIFPPSDEQLKSGTASVVCLLNNFYPREAKVQWKVDNALQSGNSQESVTEQDSKDSTYSLSSTLTLSKADYEKHKVYACEVTHQGLSSPVTKSFNRGEC
chain: not shown
EC50 [18]: 5.8 nM
Fold wrt v31931 [19]: 1 fold
IC50 [20]: 6 nM
EC50 [13]: 5.3 nM
Fold wrt WT [14]: 4.4 fold

B6: Variant 30436 treated with uPa (+uPa): PD-1 moiety cleaved from the heavy chain, HA PD-L1 left on the light chain (bispecific antibody)
heavy: not shown
light: AFTVTVPKDLYVVEYGSNMTIECKFPVEKQLDLAALQVFWMMEDKNIIQFVHGEEDLKVQHSSYRQRARLLKDQLSLGNAALQITDVKLQDAGVYTCLIAYKGADYKRITVKVNAEAAAKEAAAKDIQMTQSPSSLSASVGDRVTMTCSASSSVSYMNWYQQKPGKAPKRWIYDSSKLASGVPARFSGSGSGTDYTLTISSLQPEDFATYYCQQWSRNPPTFGGGTKLQITRTVAAPSVFIFPPSDEQLKSGTASVVCLLNNFYPREAKVQWKVDNALQSGNSQESVTEQDSKDSTYSLSSTLTLSKADYEKHKVYACEVTHQGLSSPVTKSFNRGEC
chain: not shown
fold of the one sided mask control 31931 [21]: 12 fold
EC50 [22]: 67 nM
EC50 [13]: 6.2 nM
Fold wrt WT [14]: 5.1 fold

B7: Variant 30444: WT CTLA4:WT CD80 masked CD3 × Her2 Fab × scFv Fc, CTLA4 cleavable (not treated with uPa) (bispecific antibody, human IgG1, kappa, L234A L235A)
heavy: not shown
light: MHVAQPAVVLASSRGIASFVCEYASPGKATEVRVTVLRQADSQVTEVCAATYMMGNELTFLDDSICTGTSSGNQVNLTIQGLRAMDTGLYICKVELMYPPPYYLGIGNGTQIYVIDPEEAAAKEAAAKMSGRSANADIQMTQSPSSLSASVGDRVTMTCSASSSVSYMNWYQQKPGKAPKRWIYDSSKLASGVPARFSGSGSGTDYTLTISSLQPEDFATYYCQQWSRNPPTFGGGTKLQITRTVAAPSVFIFPPSDEQLKSGTASVVCLLNNFYPREAKVQWKVDNALQSGNSQESVTEQDSKDSTYSLSSTLTLSKADYEKHKVYACEVTHQGLSSPVTKSFNRGEC
chain: not shown
notes: also called v30444
fold decrease of target binding [23]: ~80 fold
Fold wrt WT [8]: 83 fold
EC50 [10]: 100 nM
